Reference: patent US20240197902A1
Like-named read-outs stand apart in the source and are kept apart here.

What was measured:
Test in all cases: cell-based or functional assay
GDF11 [1] = target: T1, GDF11 (UniProt O95390)
T1 sequence (looked up): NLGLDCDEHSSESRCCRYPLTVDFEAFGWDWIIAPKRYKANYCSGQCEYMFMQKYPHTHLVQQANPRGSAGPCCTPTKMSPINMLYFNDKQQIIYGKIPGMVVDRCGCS

BMP10 [2] = target: BMP10 (UniProt O95393)
GDF11 [3] = target: GDF11 (UniProt O95390); remark: listed apart in the source
GDF8 [4] = target: GDF8 (UniProt O14793)
activin A [5] = target: activin A (UniProt P08476)
activin B [6] = target: activin B (UniProt P09529)
BMP9 [7] = target: T2, BMP9 (UniProt Q9UK05)
T2 sequence (looked up): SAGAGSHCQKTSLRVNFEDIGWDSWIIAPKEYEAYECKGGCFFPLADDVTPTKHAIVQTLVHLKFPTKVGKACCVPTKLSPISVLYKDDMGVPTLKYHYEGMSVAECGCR

activin A [8] = target: T3, activin A (UniProt P08476); remark: listed apart in the source
T3 sequence (looked up): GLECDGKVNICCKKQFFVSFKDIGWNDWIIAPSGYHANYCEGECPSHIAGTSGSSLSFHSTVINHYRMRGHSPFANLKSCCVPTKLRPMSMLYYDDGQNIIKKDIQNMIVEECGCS

BMP9 [9] = target: BMP9 (UniProt Q9UK05); remark: listed apart in the source
GDF11 [10] = target: GDF11 (UniProt O95390); remark: listed apart in the source
activin A [11] = target: activin A (UniProt P08476); remark: listed apart in the source
BMP10 [12] = target: T4, BMP10 (UniProt O95393); remark: listed apart in the source
T4 sequence (looked up): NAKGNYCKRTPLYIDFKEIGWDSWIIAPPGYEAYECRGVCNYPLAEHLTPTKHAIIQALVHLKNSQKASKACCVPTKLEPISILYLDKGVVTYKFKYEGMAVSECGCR

BMP9 [13] = target: T2, BMP9; remark: listed apart in the source
GDF11 [14] = target: T1, GDF11; remark: listed apart in the source
GDF8 [15] = target: T5, GDF8 (UniProt O14793); remark: listed apart in the source
T5 sequence (looked up): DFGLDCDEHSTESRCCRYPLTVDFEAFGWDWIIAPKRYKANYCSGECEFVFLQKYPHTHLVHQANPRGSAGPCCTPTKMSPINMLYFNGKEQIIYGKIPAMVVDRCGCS

activin A [16] = target: T3, activin A; remark: listed apart in the source
activin B [17] = target: T6, activin B (UniProt P09529); remark: listed apart in the source
T6 sequence (looked up): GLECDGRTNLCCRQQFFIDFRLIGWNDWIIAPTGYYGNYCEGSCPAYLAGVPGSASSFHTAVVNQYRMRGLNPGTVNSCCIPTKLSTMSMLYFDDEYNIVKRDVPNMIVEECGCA

ActRIIB(20-134)-G1Fc (Fc fusion), sequence (chain): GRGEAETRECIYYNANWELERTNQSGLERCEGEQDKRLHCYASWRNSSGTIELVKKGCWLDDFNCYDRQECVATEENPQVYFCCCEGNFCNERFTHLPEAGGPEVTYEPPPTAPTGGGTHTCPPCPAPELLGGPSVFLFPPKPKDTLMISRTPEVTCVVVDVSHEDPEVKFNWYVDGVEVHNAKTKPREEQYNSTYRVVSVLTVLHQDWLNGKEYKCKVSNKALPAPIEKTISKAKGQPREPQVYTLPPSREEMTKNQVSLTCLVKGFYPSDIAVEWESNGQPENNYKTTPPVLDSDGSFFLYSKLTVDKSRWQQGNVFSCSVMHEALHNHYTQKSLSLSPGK

Substance | IC50, A204 CAGA12 reporter gene assay (GDF11 [1]) | IC50, A204 CAGA12 reporter gene assay (BMP9 [7]) | IC50, A204 CAGA12 reporter gene assay (activin A [8]) | other results
variant ActRIIB-Fc polypeptide Y60P (Fc fusion) | 0.544 µg/mL | – | – | –
ActRIIB(F82T)-G1Fc (Fc fusion) | – | – | – | IC50, A204 CAGA12 reporter gene assay (BMP10 [2]): 0.07 nM; IC50, A204 CAGA12 reporter gene assay (GDF11 [3]): 0.27 nM; IC50, A204 CAGA12 reporter gene assay (GDF8 [4]): 2.17 nM; IC50, A204 CAGA12 reporter gene assay (activin A [5]): 0.1 nM; IC50, A204 CAGA12 reporter gene assay (activin B [6]): 0.09 nM
variant ActRIIB-Fc polypeptide E50K (Fc fusion) | 0.18 µg/mL | 0.721 µg/mL | 0.132 µg/mL | –
variant ActRIIB-Fc polypeptide R40A (Fc fusion) | 0.591 µg/mL | 1.21 µg/mL | – | –
ActRIIB(F82I)-G1Fc (Fc fusion) | – | – | – | IC50, A204 CAGA12 reporter gene assay (BMP9 [9]): 0.277 µg/mL; IC50, A204 CAGA12 reporter gene assay (GDF11 [10]): 0.009 µg/mL; IC50, A204 CAGA12 reporter gene assay (activin A [11]): 0.011 µg/mL
variant ActRIIB-Fc polypeptide Y60K (Fc fusion) | 0.414 µg/mL | – | – | –
ActRIIB(20-134)-G1Fc (Fc fusion) | 0.009 µg/mL | 0.031 µg/mL | 0.008 µg/mL | IC50, A204 CAGA12 reporter gene assay (BMP10 [12]): 0.036 nM; IC50, A204 CAGA12 reporter gene assay (BMP9 [13]): 1.82 nM; IC50, A204 CAGA12 reporter gene assay (GDF11 [14]): 0.12 nM; IC50, A204 CAGA12 reporter gene assay (GDF8 [15]): 0.95 nM; IC50, A204 CAGA12 reporter gene assay (activin A [16]): 0.05 nM; IC50, A204 CAGA12 reporter gene assay (activin B [17]): 0.067 nM
variant ActRIIB-Fc polypeptide E52K (Fc fusion) | 0.296 µg/mL | 10 µg/mL | 0.762 µg/mL | –
variant ActRIIB-Fc polypeptide K55R (Fc fusion) | 0.318 µg/mL | 0.777 µg/mL | 0.206 µg/mL | –
ActRIIB(K55E)-G1Fc (Fc fusion) | – | – | – | IC50, A204 CAGA12 reporter gene assay (BMP9 [9]): 0.29 µg/mL; IC50, A204 CAGA12 reporter gene assay (GDF11 [10]): 0.014 µg/mL; IC50, A204 CAGA12 reporter gene assay (activin A [11]): 0.019 µg/mL
variant ActRIIB-Fc polypeptide E52A (Fc fusion) | 0.071 µg/mL | 0.359 µg/mL | 0.198 µg/mL | –
variant ActRIIB-Fc polypeptide E50P (Fc fusion) | 0.638 µg/mL | 3 µg/mL | 0.756 µg/mL | –
variant ActRIIB-Fc polypeptide F82W (Fc fusion) | 0.276 µg/mL | – | – | –
variant ActRIIB-Fc polypeptide A24N (Fc fusion) | 0.099 µg/mL | 0.409 µg/mL | 0.128 µg/mL | –
ActRIIB(K55A)-G1Fc (Fc fusion) | – | – | – | IC50, A204 CAGA12 reporter gene assay (BMP9 [9]): 0.122 µg/mL; IC50, A204 CAGA12 reporter gene assay (GDF11 [10]): 0.011 µg/mL; IC50, A204 CAGA12 reporter gene assay (activin A [11]): 0.015 µg/mL
variant ActRIIB-Fc polypeptide F82W/N83A (Fc fusion) | 0.389 µg/mL | 40 µg/mL | – | –
variant ActRIIB-Fc polypeptide L79R (Fc fusion) | 0.234 µg/mL | – | – | –
variant ActRIIB-Fc polypeptide L79K (Fc fusion) | 0.477 µg/mL | – | – | –
variant ActRIIB-Fc polypeptide K55D (Fc fusion) | 0.365 µg/mL | 5.5 µg/mL | 0.396 µg/mL | –
ActRIIB(F82K)-G1Fc (Fc fusion) | – | – | – | IC50, A204 CAGA12 reporter gene assay (BMP9 [9]): 5 µg/mL; IC50, A204 CAGA12 reporter gene assay (GDF11 [10]): 0.015 µg/mL; IC50, A204 CAGA12 reporter gene assay (activin A [11]): 0.01 µg/mL
variant ActRIIB-Fc polypeptide K74R (Fc fusion) | 0.045 µg/mL | 0.165 µg/mL | – | –
